Data: publication PMC7570090, “Label-Free Monitoring of Histone Acetylation Using Aptamer-Functionalized Field-Effect Transistor and Quartz Crystal Microbalance Sensors”

B1: anti-histone H4 aptamer (structured_DNA)
DNA: TTTTGGTGGGGTTCCCGGGAGGGCGGCTACGGGTTCCGTAATCAGATTTGTGT
modifications: 5' 6-mercaptohexyl linker
B2: anti-histone H3 aptamer (structured_DNA)
DNA: TTTGAGTGTGGTTCCCGGGAGGGCGCCTACGGGTCCCGTATTCGGATTTGTGC
modifications: 5' 6-mercaptohexyl linker

Key:
[1] = target: histone H4 (human, UniProt P62805 1-103); assay: FET and QCM; 140 mM KCl; 44-2650 nM H4; FET: 1 mM phosphate, 140 mM KCl, pH 7.4, 25 C; aptamer/sulfobetaine SAM on gold annealed at 100 C and slowly cooled; QCM 30 MHz, 25 C (buffer not separately stated); conditions: protein: commercial; G-quadruplex with K+
[2] = target: histone H3.1 (human, UniProt P68431 1-136); assay: FET and QCM; 140 mM KCl; 33-1950 nM H3; FET: 1 mM phosphate, 140 mM KCl, pH 7.4, 25 C; aptamer/sulfobetaine SAM on gold annealed at 100 C and slowly cooled; QCM 30 MHz, 25 C (buffer not separately sta)

Binder | binding result [1] | binding result [2]
B1 | binds | 
B2 |  | binds
